Measured values reported in the supplement of paper PMC10567573.

B1: KRT18 (parent)
chain: PQVRDWSHYFKIIEDLRAQIFANT

Variants of: B1
Assay: protein stability index of a GFP-peptide fusion (GPS, HEK-293T) (PSI 1-6); higher = more stable
Conditions: c terminus: a fixed tail appended
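Note: lentivirally expressed fusions sorted by FACS into six bins by GFP to DsRed ratio, PSI derived from sequencing read proportions per bin multiplied by bin number.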

Variant	protein stability index
PQVRDWSCYFKIIEDLRAQIFANT [H8C]	1.78
PQVRDWSIYFKIIEDLRAQIFANT [H8I]	2.4
PQVRDWSGYFKIIEDLRAQIFANT [H8G]	2.58
PQVRDWSMYFKIIEDLRAQIFANT [H8M]	2.28
PQVRDWSRYFKIIEDLRAQIFANT [H8R]	1.98
PQVRDWSQYFKIIEDLRAQIFANT [H8Q]	1.83
PQVRDWSDYFKIIEDLRAQIFANT [H8D]	1.92
PQVRDWSTYFKIIEDLRAQIFANT [H8T]	1.6
PQVRDWSWYFKIIEDLRAQIFANT [H8W]	1.34
PQVRDWSNYFKIIEDLRAQIFANT [H8N]	2.24
PQVRDWSYYFKIIEDLRAQIFANT [H8Y]	2.08
PQVRDWSFYFKIIEDLRAQIFANT [H8F]	1.59
PQVRDWSVYFKIIEDLRAQIFANT [H8V]	2.17
PQVRDWSPYFKIIEDLRAQIFANT [H8P]	1.83
PQVRDWSAYFKIIEDLRAQIFANT [H8A]	2.06
PQVRDWSLYFKIIEDLRAQIFANT [H8L]	2.43
PQVRDWSSYFKIIEDLRAQIFANT [H8S]	2.23
PQVRDWSEYFKIIEDLRAQIFANT [H8E]	2.49
PQVRDWSKYFKIIEDLRAQIFANT [H8K]	2.59
PQVRPWSHYFKIIEDLRAQIFANT [D5P]	1.87
PQVRMWSHYFKIIEDLRAQIFANT [D5M]	2.57
PQVREWSHYFKIIEDLRAQIFANT [D5E]	2.8
PQVRLWSHYFKIIEDLRAQIFANT [D5L]	2.88
PQVRQWSHYFKIIEDLRAQIFANT [D5Q]	2.44

Variant	protein stability index
PQVRSWSHYFKIIEDLRAQIFANT [D5S]	2.5
PQVRWWSHYFKIIEDLRAQIFANT [D5W]	1.63
PQVRFWSHYFKIIEDLRAQIFANT [D5F]	1.88
PQVRAWSHYFKIIEDLRAQIFANT [D5A]	2.93
PQVRTWSHYFKIIEDLRAQIFANT [D5T]	2.53
PQVRNWSHYFKIIEDLRAQIFANT [D5N]	2.16
PQVRIWSHYFKIIEDLRAQIFANT [D5I]	2.46
PQVRYWSHYFKIIEDLRAQIFANT [D5Y]	2.15
PQVRGWSHYFKIIEDLRAQIFANT [D5G]	1.99
PQVRRWSHYFKIIEDLRAQIFANT [D5R]	3.09
PQVRCWSHYFKIIEDLRAQIFANT [D5C]	2.2
PQVRHWSHYFKIIEDLRAQIFANT [D5H]	1.68
PQVRVWSHYFKIIEDLRAQIFANT [D5V]	2.56
PQVRKWSHYFKIIEDLRAQIFANT [D5K]	3.2
PQVRDWSHYFKIIFDLRAQIFANT [E14F]	1.59
PQVRDWSHYFKIIADLRAQIFANT [E14A]	2
PQVRDWSHYFKIICDLRAQIFANT [E14C]	2.33
PQVRDWSHYFKIIDDLRAQIFANT [E14D]	2.28
PQVRDWSHYFKIIGDLRAQIFANT [E14G]	2
PQVRDWSHYMKIIEDLRAQIFANT [F10M]	2.56
PQVRDWSHYIKIIEDLRAQIFANT [F10I]	2.23
PQVRDWSHYDKIIEDLRAQIFANT [F10D]	1.9
PQVRDWSHYEKIIEDLRAQIFANT [F10E]	2.26
PQVRDWSHYVKIIEDLRAQIFANT [F10V]	1.69

Variant	protein stability index
PQVRDWSHYNKIIEDLRAQIFANT [F10N]	1.89
PQVRDWSHYCKIIEDLRAQIFANT [F10C]	2.25
PQVRDWSHYYKIIEDLRAQIFANT [F10Y]	1.54
PQVRDWSHYKKIIEDLRAQIFANT [F10K]	1.86
PQVRDWSHYGKIIEDLRAQIFANT [F10G]	2.4
PQVRDWSHYLKIIEDLRAQIFANT [F10L]	2.17
PQVRDWSHYSKIIEDLRAQIFANT [F10S]	2.15
PQVRDWSHYTKIIEDLRAQIFANT [F10T]	3.01
PQVRDWSHYRKIIEDLRAQIFANT [F10R]	2.58
PQVRDWSHYWKIIEDLRAQIFANT [F10W]	2.7
PQVRDWSHYHKIIEDLRAQIFANT [F10H]	2.57
PQVRDWSHYPKIIEDLRAQIFANT [F10P]	3.18
PQVRDWSHYQKIIEDLRAQIFANT [F10Q]	3.22
PQVRDWSHYAKIIEDLRAQIFANT [F10A]	2.29
PQVRDWGHYFKIIEDLRAQIFANT [S7G]	3.02
PQVRDWTHYFKIIEDLRAQIFANT [S7T]	2.82
PQVRDWMHYFKIIEDLRAQIFANT [S7M]	2.18
PQVRDWKHYFKIIEDLRAQIFANT [S7K]	2.36
PQVRDWIHYFKIIEDLRAQIFANT [S7I]	2.13
PQVRDWRHYFKIIEDLRAQIFANT [S7R]	1.99
PQVRDWAHYFKIIEDLRAQIFANT [S7A]	2.53
PQVRDWVHYFKIIEDLRAQIFANT [S7V]	2.53
PQVRDWLHYFKIIEDLRAQIFANT [S7L]	1.52
PQVRDWEHYFKIIEDLRAQIFANT [S7E]	2.12

Variant	protein stability index
PQVRDWHHYFKIIEDLRAQIFANT [S7H]	2.36
PQVRDWWHYFKIIEDLRAQIFANT [S7W]	1.95
PQVRDWNHYFKIIEDLRAQIFANT [S7N]	2.08
PQVRDWFHYFKIIEDLRAQIFANT [S7F]	1.41
PQVRDWQHYFKIIEDLRAQIFANT [S7Q]	3.49
PQVRDWCHYFKIIEDLRAQIFANT [S7C]	1.94
PQVRDWYHYFKIIEDLRAQIFANT [S7Y]	1.61
PQVRDWPHYFKIIEDLRAQIFANT [S7P]	2.23
PQVRDWSHYFKVIEDLRAQIFANT [I12V]	2.04
PQVRDWSHYFKGIEDLRAQIFANT [I12G]	2.72
PQVRDWSHYFKTIEDLRAQIFANT [I12T]	2.78
PQVRDWSHYFKCIEDLRAQIFANT [I12C]	2.38
PQVRDWSHYFKPIEDLRAQIFANT [I12P]	2.24
PQVRDWSHYFKAIEDLRAQIFANT [I12A]	2.53
PQVRDWSHYFKWIEDLRAQIFANT [I12W]	3.05
PQVRDWSHYFKDIEDLRAQIFANT [I12D]	3.17
PQVRDWSHYFKKIEDLRAQIFANT [I12K]	1.85
PQVRDWSHYFKSIEDLRAQIFANT [I12S]	2.3
PQVRDWSHYFKFIEDLRAQIFANT [I12F]	1.9
PQVRDWSHYFKQIEDLRAQIFANT [I12Q]	2.41
PQVRDWSHYFKHIEDLRAQIFANT [I12H]	2.36
PQVRDWSHYFKLIEDLRAQIFANT [I12L]	2.27
